According to patent publication KR20140095558A (dated 2014):

B1: SC05-157 (scFv)
scFv: EVQLVESGAEVKKPGESLKISCKGSGYSFTNYWIGWVRQMPGKGLEWMGIVYPGDSDTRYSPSFQGQVTISADKSISTAYLQWSSLKASDTAVYYCARRMAVAGSDAFDIWGQGTMVTVSSGTGGSGGTGSGTGGSTQAVLTQPSSASGTPGQTVTISCSGSTSNIGSHNVNWYQHLPGTAPKLLIYINNKRPSGVPDRFSGSKSGSSASLAISGLQSEDEADYYCAAWDDSLRRPVFGGGTQLTVL
B2: SC06-071 (scFv)
scFv: EVQLVESGGGVVQPGRSLRLSCAASGFTFSSYGMHWVRQAPGKGLEWVAMIWSDGSNKYYADSVKGRFTISRDNSKNTLYLQMNSLRVEDTAVYYCASNYGSGSYWGGFDYWGQGTLVTVSSGTGGSGGTGSGTGGSTQSALTQPASVSGSPGQSITISCTGTSSDVGGYNLVSWYQQHPGKAPKLMIYEGSKRPSGVSNRFFGSKSGDTASLTISGLQAEDEADYYCSSYTTSSTHVFGTGTKVTVL
B3: SC06-077 (scFv)
scFv: QVQLVQSGAEVKKPGSSVKVSCKASGGTFSSYAISWVRQAPGQGLEWMGGIIPIFGTANYAQKFQGRVTITADESTSTAYMELSSLRSEDTAVYYCAREGGVGPAFDIWGQGTMVTVSSGTGGSGGTGSGTGGSTDIQMTQSPDSLAVSLGERATINCKSSQSVLHNSNNKNYLAWYQQKPGQPPKLLIYWASTRESGVPDRFSGSGSGTDFTLTISSLQAEDVAVYYCQQYYGSPYTFGQGTKLEIK
B4: SC06-078 (scFv)
scFv: EVQLVESGAEVKKPGSSVKVSCKASGGTFSSYAISWVRQAPGQGLEWMGGIIPIFGTANYAQKFQGKVTITADESTSTAYMELSSLRSEDTAVYYCARLSPRYYGMDVWGQGTTVTVSSGTGGSGGTGSGTGGSTQSALTQPRSVSGSPGQSVTISCTGTSSDVGGYNYVSWYQQHPGKAPKLMIYGGSERPSGVSNRFSGSKSGNTASLTISGVQAEDEADYYCSSYTSSGTLLFGGGTQLTVL
B5: SC06-079 (scFv)
scFv: EVQLVESGGGLVQPGGSLRLSCAASGFTFSSYAMSWVRQAPGKGLEWVSAISGTGGSAYYADSVKGRFTISRDNSKNTVYLQMNSLRAEDTAVYYCAKGHSSGTNWGQGTLVTVSSGTGGSGGTGSGTGGSTSYVLTQPPSASGTPGQRVTISCSGSSSNIGSNFVYWYQQLPGTAPKLLIYRNNQRPSGVPDRFSGSKSGTSASLAISGLRSEDEADYYCAAWDDSLSGVLFGGGTQLTVL
B6: SC06-087 (scFv)
scFv: EVQLVESGGGLVKPGGSLRLSCAASGFTFSSNSMNWVRQAPGKGLEWVSFISSSSTYIYYADSVKGRFTISRDNAKNSLYLQMNSLRAEDTAVYYCARESAAGISYDAFDIWGQGTMVTVSSGTGGSGGTGSGTGGSTQSALTQPASVSGSPGQSITISCTGTSSDVGGYKYVSWYQQHPGKAPKLMIYEVSNRPSGVSNRFSGSKSGSTASLTISGLQAEDEADYYCSSYTSSSTLGVFGTGTKVTVL
B7: SC06-089 (scFv)
scFv: EVQLVETGGGLVQPGGSLRLSCAASGFTFSSYSMNWVRQAPGKGLEWVSFISSSSSTIYYADSVKGRFTIARDNAKNSLYLQMNSLRDEDTAVYYCARPVGTGISLFHAFDIWGQGTMVTVSSGTGGSGGTGSGTGGSTQSVLTQPPSVSVAPGQTARITCGGNNIGSKYVHWYQQKPGQAPVLVVYDDSDRPSGIPERFSGSNSGNTATLTISRVEAGDEADFYCQVWDGSSDPVVFGGGTKLTVL
B8: SC06-092 (scFv)
scFv: EVQLVESGGGLVQPGRSLRLSCTGSGFTFGDYAMSWFRQAPGKGLEWVGFIRNKAYGGTAEYAASVKDRFIISRDDSKSIAYLQMNSLKTEDTAVYYCVRREYDTGWLDYWGQGTLVTVSSGTGGSGGTGSGTGGSTQSALTQPPSASGSPGQSVTISCTGTSSDVGGYNYVSWYQRHPGKAPKLMIYDVTDRPSGVSNRFSGSKSGNTASLTISGLQAEDEADYYCSSYTSSSTSAVFGGGTKLTVL
B9: SC06-191 (scFv)
scFv: EVQLVESGGGVVQPGRSLRLSCVASEFTFSNYGMHWVRQAPGKGLEWVAVIWYDGSNEDYADSVKGRFTISRDNSKNTVYLHMNSLRAEDTAVYFCTRGQYSSTWFLDYWGQGTLVTVSSGTGGSGGTGSGTGGSTDIQLTQSPSTLSASVGDRVTITCRASQSISSWLAWYQQKPGKAPKLLIYKASSLETGVPSRFSGSGSGTDFTLTISSLQPEDFATYYCQQANSFPLTFGGGTKVDIK
B10: SC05-159 (scFv)
scFv: QVQLVQSGAEVKKPGATVKISCKVSGYTFTDYYMHWVQQAPGKGLEWMGLVDPEDGETIYAEKFQGRVTITADTSTDTAYMELSSLRSDDTAVYYCARAEVMTTINNWYFDLWGRGTLVTVSSGTGGSGGTGSGTGGSTSYVLTQPPSASGTPGQRVTISCSGSSSNIGSNNVSWYQQLPGTAPKLLIYSNNQRPSGVPDRFSGSKSGTSASLAISGLQSEDEADYYCAAWDDSLNGWVFGGGTKLTVL
B11: SC06-198 (scFv)
scFv: QLQLQESGPGLVKPSETLSLTCAVSGYSITSGYYWGWVRQPPGKGLEWIGSIYHTGSTYYNPSLKSRVTISVDTSKNQFSLKLNSLTAADTAVYFCASQSPAFDFWGQGTMVTVSSGTGGSGGTGSGTGGSTQSVLTQPPSVSGAPGQRVTISCTGSSSNIGTGYDVHWYQQLPGTAPKLLIYGNNNRPSGVPDRFSGSKSGTSASLAITGLQAEDEADYYCATWDDSLNGWVFGGGTKLTVP
B12: SC06-241 (scFv)
scFv: EVQLVESGGGLVQPGRSLRLSCAASGFTFRSYAMYWVRQAPGKGLEWLALISHDASKMFYADSVKGRFTISRDNSKNTLSLQMNSLTIEDTAVYYCVRERTGYYGAYWGQGTLVTVSSGTGGSGGTGSGTGGSTDIQMTQSPSSLSASVGDRVTLTCRASQGIGTWLAWYQQKPGKAPKLLIYSASSLQSGVPSRFSGSGSGTDFTLSISNLQPEDFATYYCQQANSFPITFGQGTRLEIK
B13: SC06-242 (scFv)
scFv: EVQLVESGPGLVKPSETLSLTCTVSGGSISSYYWSWIRQPPGKGLEWIGYIYYTGTTNYNPSLNSRVTISADTSKNQFSLKLSSVTAADTAVYYCARGGQTAGVWGKGTTVTVSSGTGGSGGTGSGTGGSTQSVLTQPPSVSVAPGQTARITCGGYNIGRKSVHWYQQKPGLAPVLVVYDNSDRPSGIPARFSGSNSGNTATLTISGTQAMDEADYYCQAWDRGTAVFGTGTKVTVL
B14: SC06-246 (scFv)
scFv: EVQLVESGGGLIQPGGSLRLSCAASGFTVSSDFMTWVRQAPGRGLEWVSLIYSGGKTNYADSVKGRFTISRDNSRNTLYLQMNSLRAEDTAVYYCARSVCSTISCSKLDDWGQGTLVTVSSGTGGSGGTGSGTGGSTQAVLTQPSSVSVAPGQTARITCGGNNIGRKSVHWYQQKPGLAPVLVVNDNSDRPSGIPARFSGSNSGNTATLTISRVEAGDEADYYCHVWGSSRDHYVFGTGTKVTVL
B15: SC06-252 (scFv)
scFv: EVQLVETGGGLVQPGGSLRLSCAASGLTFSSYAMSWVRQAPGKGLEWVSALSGSTTFYADSVKGRFTISRDNAKNTLYLQMNSLRAEDTAVYYCARGNYYGMDVWGQGTTVTVSSGTGGSGGTGSGTGGSTSYVLTQPPSASGTPGQRVTISCSGSSSNIGKFYVYWYQQFPGAAPKLLIYSNNQRPSGVPDRFSGSKSGTSASLAISGLQSEDEADYYCAAWDGSLNGYVFGTGTKVTVL

target: T1, BSA (bovine serum albumin) (bovine (송아지 혈청 알부민), UniProt P02769 25-607); test: phage ELISA, 1% BSA coated, anti-M13 peroxidase, OD 492 nm
T1 construct: Negative control antigen of the phage ELISA; also called 송아지 혈청 알부민
T1 sequence (P02769 25-607 limits assumed): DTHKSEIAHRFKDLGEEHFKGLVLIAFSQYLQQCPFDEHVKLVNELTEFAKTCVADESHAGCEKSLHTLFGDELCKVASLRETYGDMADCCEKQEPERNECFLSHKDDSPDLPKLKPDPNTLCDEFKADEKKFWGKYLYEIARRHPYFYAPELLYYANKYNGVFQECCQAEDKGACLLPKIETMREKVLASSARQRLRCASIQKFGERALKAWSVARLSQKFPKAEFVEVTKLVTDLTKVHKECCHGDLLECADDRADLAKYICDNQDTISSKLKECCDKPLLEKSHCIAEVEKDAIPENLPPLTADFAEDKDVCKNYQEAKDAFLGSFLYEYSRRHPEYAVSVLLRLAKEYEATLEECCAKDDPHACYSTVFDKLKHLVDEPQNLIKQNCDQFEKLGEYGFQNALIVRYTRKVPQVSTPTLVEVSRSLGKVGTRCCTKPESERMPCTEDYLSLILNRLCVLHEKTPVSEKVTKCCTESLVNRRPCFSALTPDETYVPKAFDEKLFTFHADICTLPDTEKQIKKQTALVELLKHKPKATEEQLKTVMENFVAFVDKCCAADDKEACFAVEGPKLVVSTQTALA

Row | Binder | binding result
1 | B1 | no binding
2 | B2 | no binding
3 | B3 | no binding
4 | B4 | no binding
5 | B5 | no binding
6 | B6 | no binding
7 | B7 | no binding
8 | B8 | no binding
9 | B9 | no binding
10 | B10 | no binding
11 | B11 | no binding
12 | B12 | no binding
13 | B13 | no binding
14 | B14 | no binding
15 | B15 | no binding
